Measured values as given in patent publication US20220227829A1 (SHANGHAI GP BIOTECH, published 2022).

T1: CD25 protein (from Example 2)
T1 chain: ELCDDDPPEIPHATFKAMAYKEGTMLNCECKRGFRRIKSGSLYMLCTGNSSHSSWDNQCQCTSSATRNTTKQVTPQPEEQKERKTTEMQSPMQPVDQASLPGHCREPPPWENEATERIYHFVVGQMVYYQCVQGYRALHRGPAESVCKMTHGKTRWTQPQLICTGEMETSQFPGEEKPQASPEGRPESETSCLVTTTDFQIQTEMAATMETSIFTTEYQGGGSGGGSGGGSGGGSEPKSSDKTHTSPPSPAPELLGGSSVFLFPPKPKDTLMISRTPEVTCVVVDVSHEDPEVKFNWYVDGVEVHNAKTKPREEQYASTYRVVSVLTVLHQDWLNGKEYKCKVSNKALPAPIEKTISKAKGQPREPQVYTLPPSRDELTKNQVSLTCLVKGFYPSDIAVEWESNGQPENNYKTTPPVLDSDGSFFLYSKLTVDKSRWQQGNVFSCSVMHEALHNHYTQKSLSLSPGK

T2: CD25 on the surface of CTLL-2 cells (mouse cytotoxic T lymphocyte cell line) (mouse, UniProt P01590 22-268)
T2 sequence (looked up): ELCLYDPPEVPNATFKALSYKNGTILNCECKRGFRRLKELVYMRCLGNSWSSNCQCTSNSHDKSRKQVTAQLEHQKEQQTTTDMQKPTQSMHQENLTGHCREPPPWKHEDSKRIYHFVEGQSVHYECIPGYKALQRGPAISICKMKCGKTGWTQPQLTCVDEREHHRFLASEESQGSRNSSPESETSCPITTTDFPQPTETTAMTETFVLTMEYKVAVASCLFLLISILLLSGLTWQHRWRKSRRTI

T3: CD25 on the surface of NK92 cells (human NK cell line) (human, UniProt P01589 22-272)
T3 sequence (looked up): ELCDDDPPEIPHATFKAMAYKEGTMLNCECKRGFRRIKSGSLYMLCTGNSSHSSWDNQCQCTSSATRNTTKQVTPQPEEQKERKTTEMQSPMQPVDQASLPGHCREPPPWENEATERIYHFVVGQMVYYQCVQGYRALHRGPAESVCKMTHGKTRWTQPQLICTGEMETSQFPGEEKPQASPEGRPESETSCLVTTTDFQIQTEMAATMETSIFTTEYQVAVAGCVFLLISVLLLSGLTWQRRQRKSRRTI

T4: CD25 on the surface of CTLL-2 cells (mouse cytotoxic T lymphocyte cell line) (mouse) (UniProt P01590)
T4 sequence (looked up): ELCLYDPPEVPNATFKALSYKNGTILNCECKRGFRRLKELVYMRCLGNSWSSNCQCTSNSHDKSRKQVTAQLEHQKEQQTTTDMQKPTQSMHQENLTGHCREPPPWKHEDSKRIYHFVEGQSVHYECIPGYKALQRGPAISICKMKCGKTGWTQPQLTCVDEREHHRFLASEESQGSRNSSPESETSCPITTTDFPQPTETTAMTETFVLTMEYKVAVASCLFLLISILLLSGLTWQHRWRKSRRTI


How the values were obtained:
[1] = target: T1, CD25 protein (from Example 2); assay: ELISA on coated CD25, sample at 0.04 ug/ml, relative to rhIL-2 = 100%
Description: (§1) CD25 (from Example 2) was coated on a 96-well high adsorption microtiter plate (3590, Costar), washed and blocked. The sample to be tested was diluted to an appropriate concentration and added to wells.

[2] = target: T1, CD25 protein (from Example 2); assay: ELISA on coated CD25, sample at 0.2 ug/ml, relative to rhIL-2 = 100%
Description: as §1

[3] = target: T2, CD25 on the surface of CTLL-2 cells …; assay: cell-based or functional assay
[4] = target: T1, CD25 protein (from Example 2); assay: ELISA on coated CD25, sample at 1 ug/ml, relative to rhIL-2 = 100%
Description: as §1

[5] = target: T1, CD25 protein (from Example 2); assay: ELISA on coated CD25
Description: as §1

[6] = target: T3, CD25 on the surface of NK92 cells …; assay: cell-based or functional assay
[7] = target: CD25 on the surface of NK92 cells (human NK cell line) (human) (UniProt P01589); assay: cell-based or functional assay
[8] = target: T4, CD25 on the surface of CTLL-2 cells (mouse cytotoxic T lymphocyte cell line) (mouse); assay: cell-based or functional assay

Row | Binding activity (%) [1] [%] | Binding activity (%) [2] [%] | Binding activity (%) [4] [%] | binding result [5] | EC50 (nM), NK92 cell proliferation [6] [nM] | Potency relative to rhIL-2 (%), NK92 cell proliferation [6] [%] | EC50 (nM), NK92 cell proliferation [7] [nM] | Potency relative to rhIL-2 (%), NK92 cell proliferation [7] [%] | Binder | EC50 (nM), CTLL-2 cell proliferation [3] [nM] | Potency relative to rhIL-2 (%), CTLL-2 cell proliferation [3] [%] | EC50 (nM), CTLL-2 cell proliferation [8] [nM] | Potency relative to rhIL-2 (%), CTLL-2 cell proliferation [8] [%]
1 | 1.51 | 0.99 | 0.74 | no binding (tested: 1 ug/ml) | 23.2 | 0.008 | – | – | IL-2gm14 (T3A, M39N, A73T, D109N), HIS tag (ligand, Expressed in Expi293F cells; also called IL-2gm14-His) APASSSTKKTQLQLEHLLLDLQMILNGINNYKNPKLTRNLTFKFYMPKKATELKHLQCLEEELKPLEEVLNLTQSKNFHLRPRDLISNINVIVLELKGSETTFMCEYANETATIVEFLNRWITFAQSIISTLTHHHHHH | 47.9 | 0.006 | – | –
2 | 1.36 | 0.99 | 0.68 | no binding (tested: 1 ug/ml) | 7.76 | 0.025 | – | – | IL-2gm15 (T3A, M39N, K49N, D109N), HIS tag (ligand, Expressed in Expi293F cells; also called IL-2gm15-His) APASSSTKKTQLQLEHLLLDLQMILNGINNYKNPKLTRNLTFKFYMPKNATELKHLQCLEEELKPLEEVLNLAQSKNFHLRPRDLISNINVIVLELKGSETTFMCEYANETATIVEFLNRWITFAQSIISTLTHHHHHH | 16.5 | 0.018 | – | –
3 | – | – | – | – | – | – | 0.824 | 0.641 | IL-2gm6 (T3A, M39N, K49N, A73T, D109N), IgG1-Fc tag (Fc fusion) APASSSTKKTQLQLEHLLLDLQMILNGINNYKNPKLTRNLTFKFYMPKNATELKHLQCLEEELKPLEEVLNLTQSKNFHLRPRDLISNINVIVLELKGSETTFMCEYANETATIVEFLNRWITFAQSIISTLTEPKSSDKTHTSPPSPAPELEGGSSVFLFPPKPKDTLMISRTPEVTCVVVDVSHEDPEVKFNWYVDGVEVHNAKTKPREEQYASTYRVVSVLTVLHQDWLNGKAYACAVSNKALPAPIEKTISKAKGQPREPQVYTLPPSREEMTKNQVSLTCLVKGFYPSDIAVEWESNGQPENNYKTTPPVLDSDGSFFLYSKLTVDKSRWQQGNVFSCSVMHEALHNHYTQKSLSLSPGK | – | – | 5.95 | 0.049

Further lines, the binder ahead of its results:

Row | Binder | Binding activity (%) [1] [%] | Binding activity (%) [2] [%] | Binding activity (%) [4] [%] | binding result [5] | EC50 (nM), NK92 cell proliferation [6] [nM] | Potency relative to rhIL-2 (%), NK92 cell proliferation [6] [%] | EC50 (nM), NK92 cell proliferation [7] [nM] | Potency relative to rhIL-2 (%), NK92 cell proliferation [7] [%] | EC50 (nM), CTLL-2 cell proliferation [3] [nM] | Potency relative to rhIL-2 (%), CTLL-2 cell proliferation [3] [%] | EC50 (nM), CTLL-2 cell proliferation [8] [nM] | Potency relative to rhIL-2 (%), CTLL-2 cell proliferation [8] [%]
4 | IL-2gm4 (T3A, K49N, A73T), IgG1-Fc tag (Fc fusion) APASSSTKKTQLQLEHLLLDLQMILNGINNYKNPKLTRMLTFKFYMPKNATELKHLQCLEEELKPLEEVLNLTQSKNFHLRPRDLISNINVIVLELKGSETTFMCEYADETATIVEFLNRWITFAQSIISTLTGGGSGGGSGGGSGGGSEPKSSDKTHTSPPSPAPELEGGSSVFLFPPKPKDTLMISRTPEVTCVVVDVSHEDPEVKFNWYVDGVEVHNAKTKPREEQYASTYRVVSVLTVLHQDWLNGKAYACAVSNKALPAPIEKTISKAKGQPREPQVYTLPPSREEMTKNQVSLTCLVKGFYPSDIAVEWESNGQPENNYKTTPPVLDSDGSFFLYSKLTVDKSRWQQGNVFSCSVMHEALHNHYTQKSLSLSPGK | – | – | – | – | – | – | 0.0152 | 34.8 | – | – | 0.00919 | 31.5
5 | IL-2gm5 (T3A, M39N, K49N, A73T), IgG1-Fc tag (Fc fusion) APASSSTKKTQLQLEHLLLDLQMILNGINNYKNPKLTRNLTFKFYMPKNATELKHLQCLEEELKPLEEVLNLTQSKNFHLRPRDLISNINVIVLELKGSETTFMCEYADETATIVEFLNRWITFAQSIISTLTEPKSSDKTHTSPPSPAPELEGGSSVFLFPPKPKDTLMISRTPEVTCVVVDVSHEDPEVKFNWYVDGVEVHNAKTKPREEQYASTYRVVSVLTVLHQDWLNGKAYACAVSNKALPAPIEKTISKAKGQPREPQVYTLPPSREEMTKNQVSLTCLVKGFYPSDIAVEWESNGQPENNYKTTPPVLDSDGSFFLYSKLTVDKSRWQQGNVFSCSVMHEALHNHYTQKSLSLSPGK | – | – | – | – | – | – | 0.0711 | 7.42 | – | – | 0.173 | 1.68
